From the DeepSol protein solubility set

Assay: soluble on expression in E. coli; label from the status in PepcDB or PDB records

Sequence	soluble on expression in E. coli
MGSDKIHHHHHHVPLNSPLQLSLPVHLPDDETFNSYYPAAGNDELIQKLRANAEGQGEAAIYLWGPVKSGRTHLMHAACAHANEVERRSFYIPLGIHASISTALLEGLEQLDLVCIDDVDAIAGHPVWEEAIFDLYNRVAEHKNCALVVSGSSSPADAGFLLPDLVSRMQWGLNYQLQPMADDEKLAALQRRAAMRGLQLPEDVGRFLLNRMARDLRTLFDVLDKLDKASLVHQRKLTIPFAKEMLHL	not soluble
MGSDKIHHHHHHVPRVARIKSKSGIYHIIMRGINRQIVFEENEDCVKFIQTLQKIQAICKYRLYAYCLMGNHLHLLLMEGTEPLGNVMRRICSSYVLWYNKKYDRVGYLFQDRFKSEPVEDDGYFLTVLRYIFQNPVKAGIVTKIKDYKWTNYTDYIEGSNKTDTDFVLDFFNTNRERAIRSFIEYINKTNDDKCLDIPGKRQLTDEDAKKIIKDHCHIYNALDLYKFDVNKRNQYLKELKEGYGLSIRQIERLTGIGRGIIQRA	not soluble
MGSDKIHHHHHHVQESREFILEIAQLNKTYSGNRVLNNINFDLKLGEVHALVGENGAGKSTLIKIIAGVEKPDPGAEILFGGCPAINLNPSKSVQMGISVIYQDISLFPNLSVAENICIGGQKGLFIKWKQVFETARSALIKLGAIDIDPHVPLGEISIGQRQMVALARALTHEARVIIMDEPTSSLSANEIKALYSAIQILKNENKSLIYISHKFEEVFEVADRISVLRDGEMIASKAAWEFDEQSLISMMVGREIRFLPMRNDGVAGKKLLEVRGLTKEPLFRNISFSLYENEILGITGLVGAGRSEMAQTLFGLEKADKGRIFMGEKELSIKSAVDAIKSGICYLPEDRRGQGIFLIQSMARNITTAKLESILNRCRLLSRPKEMAVSEYYMDRLNIKPRLPDISADKMSGGNQQKLLFSRWLNARPQILIADEPSSGIDVATKAEIHGLLRELAASGVGVILISSDLPETLAVCDRILVMRNGNIVDQTSSKESSQEELIRKGLMG	not soluble
MGSDKIHHHHHHVRALVVSVDNTARREGDTGRRVGMQPPEPPFPHNEKESTAVNFKEMQATLMHELRLYHYPVAVKFFFDQAEVDKFKAETEYYTPLKAMTFCQWQIAARMKGQTVYSEREGLGCSNAVFSFGWKDLDEAEVKSHAKYCKDLDQAKRFVETKSRLPEGLIGIAVAPLADATFMPDTVHFYCDNMQAYHLAVDYMAATDTHPLRPQITMNSSACGGNVYTMVEKQFNMLPACSGSYNAGKTERGEINVIIPGEQMQMVYERLLERMEKLGSSSITKPGDGFPGADVCKNCPLIVFKKAKD	not soluble
MGSDKIHHHHHHVSSSLKDIQNKNQELDTKKQILSALNIRDVKDADAEYNKYVKGDMLMNVDGTLTENTDGFSISYEKEAKENNRLHVFVCEVDGETKYVVPVYGAGLWGAIWGYVALNADKDTVYGVYFSHASETPGLGAEIAGAAFQNEFSGKKVLKDGQVALAVEKNGKVTDPAYQVDGISGGTITSKGVDAMIKACLSQYDKFLTNN	not soluble
MGSDKIHHHHHHVTALSIIKEAEHSLQMLFNELEEIAYTNQVRVIEAFHKHRVREYYFYPSTGYGYGDSGRDALEDIFADIFGTEDALVRSQVVSGTHAISACLFALLRPGDELISLTGSPYDTLCRIIGHEEKSPGTLIDKGIKYSEVDLDERGKPDLTAIAAAIKDTSRMVLIQRSRGYKTRPPVDLDTIAAITKLVKARNPATIVMLDNCYGEFTAVQEPGHYGVDIIAGSLIKNPGGGLIPSGGYIAGNQDLIEQLAFHLTAPGLGKELGASLLDKRIMYQGLFLAPHTVLQALKGAVLLAYVFEEHGYEVFPRWNEKRSDIVQAVKLRDAAEVLRFCQEVQNASPVDSDVTLEYGELPAYRDKIVMAAGTFVQGSSIELSCDAPLRSPHCVFLQGGLSYEHCRFLLQRLLDRFLLANA	not soluble
MGSDKIHHHHHHVTQNSPRQLSLPVYLPDDETFQSYYPASGNDELIQKLQASAQGGLSSSLYIYGPVKSGRTHLMHAACALANDKDRRTLYIPLGIHASISPALFEGLESLELICIDDIDAIAGHPIWEEAIFHLYNRIAEHKDCHLIVSGKASPTEAGFLLPDLVSRMQWGLIYQLQPMADDEKLLALQRRAAMRGLQLSDEVGRFLLTRMARDLRTLFDVLDKLDKASMVHQRKLTIPFIKEMLRL	not soluble
MGSDKIHHHHHHVTYVRNNALHCGPLPQHVTAPSFRSGTGFYETLLYNGCRLVNADAHMERITRSARACGLHLLPVDLHAAAQMLLDHLGLCGSMARINLFYTLENAPAADASGLCPPLVPAVTAAPYTPPPADKAFRLCRALHGVQSWWHEHKTTAHMGHLMERTHAQAAGYDDAVLHLPDGAILETTTAALIFYNGSRFTAPFPRFRLSSTAEALVKDVLGITYEKITADRLGCMQHAYVLNALMGMRPVRSIDTAEFNPDTDLCNEMTVLIQKAA	not soluble
MGSDKIHHHHHHVVLAVVVGRRTASLALRGRGGRSKGGIHLPQNRIRFGSVGCRDLRSQLRRLIEDETMSEPAEAFYLPLGDNRYEPTRATESPWDSQAQHGGPPTALLGHLLDTAAGPDKRLARITADFLGAIPRRPFRVDTVEIRPGRRIALLEARMVFDDRPAVVARAWAIETGPTPPATGEQLHPPALADADPALDLTGWGYGEAIEWRYTRGGYGTADSAADVWTRVRIPLIAGEKLTGLARTLVVADSANGVSAALPMEHWLFIPPSITVTLARFPDTEWVHMACRSHLSPDGLGVSHATLSDTDGYLGEVSQPLLVRPR	not soluble
MGSDKIHHHHHHYGAQAYGMGGGGGGYNRPMNSYGNGYNNGGGFNNYGNGGGFGGNNYNNGPPPFDGGYNRPYGGGGGGGYGRPQGYVPPPPPPPTQPEPEPEPRPEPQPEPQPEPQPEPQPEPQPEPHPEPAPEPIVKPYNSYAQPHNSYVRYGGK	not soluble
MGSDKIHHHHHHYMDTIPTENVSFTTVSTSLDNLYLALNGIHRKMVSQDLGNQGLGGEPGFIIGREALADDLTWDTQTWHQGFLNWSYPTNATSSYNSGEWETYYKFILNANNILKALNDNFSDESKLTDSEKALANHIKGECLAIRAWSHFNLVQYYAKPYRNGQDNSQPGVPYRTSPEIEPMARNTVEEVYTKIHGDLDEALNLLADYEPNDKNHYSLASVYGLKARALLTQQKYADAATAAVNSINEAEKDGCKIMSQSELMNGFANITSATKEAMYAAMTQNDQTVYFYSFYAYMSWNFNSSSIRTGIKCISQSTYDLMSPTDLRRQWWDPTGKAEVPATSYNQRVYQNRKFTARSTADAVGDFAFMRISEMYLTAAEAFARSNQDAKAKEYLQALLKERDPEYKDLGNTGAKLADEIMTHRRIELWGEGFRWFDLKRLGLPLDRTGSNFDATFCGFLHKDPNADGWIFEIPKKETDFNDLIEKNY	not soluble
MGSDKIHHHHHHYPEPVLNPESCTSIMVGKKASADGSVMTSHTCDSNYRTWMDIVPSASYDHDTTTTVYTGRMHTEYAEGTRGMIAKGTLPEARSTYQFLNTAYPCLNEKQLGIGETTITGRKALVNKKGMFMIEELQRIALQRCTTARDAIRLMGELIEKYGYGDWGECLTIADPKEVWHFEVFGEGPDKIGGVWAAIRIPDDHVGVSANIPRISKVDPSDKENCMASANVFEVAKRMGFWDGKKPFRFWEAYGGGNYSGELKSFSIREFFILNKLAPSLHLSYDAEELPISVKPEKPVDVTDVMALLSETYEGTEYDMTKNLKVAVKKKDSNETDTIISPVANPWMTTDMVNMLNGLRPDAVKRYRLVAVPQCSYSTVIQLRDWLPDAVGGVVWMAYDNPGQSPRIPIFCGTKDLPACFKVCGQHRYREDAAVWAFRRANKLATVRWGATKDRMKASIAHFTEKGQTELPFVESRYKEILTQQGEEAAKEYLTGYTADFAGATMLRWREMGDSFWTQFERGF	not soluble
MGSDKIHHHHHHYTEQPIDLVPTQPLPNASFDNFKLTCSNTKFADDLNQMTGFTKPASRELSVTFFPDLNGDVVAIDYRHYSASFKKGAKLLHKPIVWHINQATTKTTFKPNTWCLRCLWSTKPVDT	soluble
MGSIISRTIPGQGHGNQYYPGVQWDVRDSAWRYVTILDLPFSLVFDTLLLPIDIHHGPYELEHHHHHH	not soluble
MGSQAAHMMSMDFEDFPVESAHRILTPRPTVMVTTVDEEGNINAAPFSFTMPVSIDPPVVAFASAPDHHTARNIESTHEFVINITPADIIERMWVTARDIPAGENELEAAGLAWTSSRRVKPPRIVEAPGHLECELLRMFEVGDHNLITGSVVSASVRSGAVKEGLLDVESVKPVLHVGGNKFVVGDHVRHVE	soluble
MGSSHHHHHHGGTGENLYFQGGSGMADERFDSMLLAIAQQQQGIDGILDTFFSFLNRKTDFFTQPDMARRSVQQAMSRYLAEAEEKQRKAKEAQAAAQQQQQQQQQSARTSSRVEVLESEEEVNAVAAAQAAEEAAQRKQELERAQREVAEAKAKKEAAGNEAETGATEAFADTGDAPRGLPPTAANGFAYEKYIFSQSLQEAEVRVPLPAVNVKGKQVSIVITSSHLTVGMKGQPPIVDGDLYSKVRAEECMWTIEDGHTVVVTLYKVNSMEWWKTIFQGDPEIDLQKVIPENSKLDDLDSDTRQTVEKMMYDQRQKMMGKPTSDEQKKQDMLRKFMEAHPEMDFSQAKFC	soluble
MGSSHHHHHHGGTGENLYFQGGSGPAREKAIVLIDGPALVHRWYHRWSYTTERYGTSLDVKQFAIKNARFMIATAHSFDPAHMAQHLLSPQTEYAHTPKHNRIIVCFDHGDGGRRQIYADYKANRLQKAVTSEFRLIERVAKKVFADEPRESLLVVPDCDAGLANLNAEADDMIATLAFFNQQNTRPTVVMSHDYDLYQLVDEAKKSYHYDIRTKHLVSERGVMERVGVPPKLVRDFKSLAGDSSDNIPGVNGIGKVRARNLLKKYGDLDGILFKGIKKETGHLGELLNEGAKMALISRQLVDFRMCPKVIKVCESFMRI	not soluble
MGSSHHHHHHGGTGENLYFQGGSGQQQPRPVVAQYAYIELLPLRYTGPAPPPAPACMDPTPDEQYRRGVAEKRAALKQKEARRQMSSSGSGMLASLKSAVSQAVMTMEKGAADVSTRTESQVRQLEYQYDCDRFNLHFHELAENGEVLLADYRCSAMHSGLRVNGHVQITPHYLCFLAETTSSIAKTTDAVMGVFVAARHPTSANDEPRNRPVGIKQVIALADIVSIQPSVVLESIGGQAPFFMLLPAPTVRPTALQLYTQDSKLYQFMNFESLVSRATVALNDVVKGTALDQAYNYLDHAWRDTVNLRSKDV	not soluble
MGSSHHHHHHGKTIFVIVPTNEEQVAFLEALAKQDELNFDWQNPPTEPGQPVVILIPSDMVEWFLEMLKAKGIPFTVYVEEGGSENLYFQGGGGGGQSPRDAHTHTHTHTDAHKHVLVHICVCVCACVCVSYSLHSTLALSLPAFSPHCHSLRLGFHVFRKQRARTKTAAVAEQRGLRWTHTTARTAKSGWPPRGHTDTHTHTHTHTHITWEYASSGMTLVFEARRLPFGSISEVYAASIQPIVALHALDKLPLWDRCMLVAVLPVVQQRHSASAAAAPPSTVVRPSLTRNDSDNADAAAASLSSATVRAANHEERVNASPELAGAPSLEDVALALTIVRALDELEVVYDSSISTRAELEQQQQQQPSLPAASLAEAPRRAFKQPKKTSEELLMEQLLQERFTDTAPYLLESSDEGGENSADAAVDVAMCFTVKGESLGIGSATIFGGHGYHP	not soluble
